Binding signal (% decrease of binding rate) data for 2 sequences are collected here from paper PMC5449627.

The target in this data set is AGO2 (Argonaute 2) (UniProt Q9UKV8). Kind of data set: single-molecule FRET. The note with it: guide 5' phosphate; internal amino-C6 U18; single-molecule FRET on immobilized biotinylated target RNA; 100 nM AUF1 where added; buffer, salt, pH and temperature not in the material.
Sequence of AGO2 (Argonaute 2) (Q9UKV8 whole entry): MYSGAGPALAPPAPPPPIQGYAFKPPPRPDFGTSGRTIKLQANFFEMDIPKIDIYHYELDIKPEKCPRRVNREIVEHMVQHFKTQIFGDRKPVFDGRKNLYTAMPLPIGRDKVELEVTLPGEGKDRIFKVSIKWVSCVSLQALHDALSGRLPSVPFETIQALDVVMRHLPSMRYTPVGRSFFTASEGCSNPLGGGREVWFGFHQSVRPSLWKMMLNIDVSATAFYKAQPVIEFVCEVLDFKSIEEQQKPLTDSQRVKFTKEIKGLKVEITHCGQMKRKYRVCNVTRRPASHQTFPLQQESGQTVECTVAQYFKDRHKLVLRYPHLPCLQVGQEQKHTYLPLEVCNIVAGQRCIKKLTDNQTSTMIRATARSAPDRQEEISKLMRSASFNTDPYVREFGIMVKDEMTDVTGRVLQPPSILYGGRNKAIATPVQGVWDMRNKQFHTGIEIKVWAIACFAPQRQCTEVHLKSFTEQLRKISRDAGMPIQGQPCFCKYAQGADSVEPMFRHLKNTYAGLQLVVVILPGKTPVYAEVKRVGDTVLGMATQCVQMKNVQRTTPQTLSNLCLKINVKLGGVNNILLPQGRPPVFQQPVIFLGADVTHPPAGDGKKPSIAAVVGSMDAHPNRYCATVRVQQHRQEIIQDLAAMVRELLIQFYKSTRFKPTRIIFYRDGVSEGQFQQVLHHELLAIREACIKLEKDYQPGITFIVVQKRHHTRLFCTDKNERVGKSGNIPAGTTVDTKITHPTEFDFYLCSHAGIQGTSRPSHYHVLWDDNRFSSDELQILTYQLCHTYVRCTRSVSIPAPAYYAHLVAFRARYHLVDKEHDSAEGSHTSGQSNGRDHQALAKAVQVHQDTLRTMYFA

Consider “UGAGGUAGUAGGUUGUGUGGUU / UAACCACACUGUUGACUACCUCACCCCCCCCCCCCCCCC [let-7b guide / POLR2D RNA with let-7b WT]”, for which the binding signal (% decrease of binding rate) was found to be 42.
As for “UGAGGUAGUAGGUUGUGUGGUU / UAACCACACUGUUGACUACCUCAUUCCUGGUUUUUGGCCUCCACAUCAUCUUUUUUCUUAAUAUUUCAUCCCCCCCCCCCCCCCC [let-7b guide / POLR2D RNA with let-7b WT and AUF1 site]”, the figure is 78.
